We go through 38 sequences from the supplement of paper PMC7877785.

± gives the uncertainty stated by the source.

The data set is described as follows: self-splicing fitness, log relative to wild type (ln ratio); higher = more splicing; Tetrahymena group I intron in knt gene, E. coli kanamycin selection, DiMSum; sequences stand for … in CUCUCU…GGAGGGAAAAGUUAUCAGGCAUGCACCUGGUAGCUAGUCUUUAAACCAAUAGAUUGCAUCGGUUUAAAAGGCAAGACCGUCAAAUUGCGGGAAAGGGGUCAACAGCCGUUCAGUACCAAGUCUCAGGGGAAACUUUGAGAUGGCCUUGCAAAGGGUAUGGUAAUAAGCUGACGGACAUGGUCCUAACCACGCAGCCAAGUCCUAAGUCAACAGAUCUUCUGUUGAUAUGGAUGCAGUUCACAGACUAAAUGUCGGUCGGGGAAGAUGUAUUCUUCUCAUAAGAUAUAGUCGGACCUCUCCUUAAUGGGAGCUAGCGGAUGAAGUGAUGCAACACUGGAGCCGCUGGGAACUAAUUUGUAUGCGAAAGUAUAUUGAUUAGUUUUGGAGUACUCGUGGUCG
The gist of the method:
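Fitness was computed with DiMSum as the error-weighted combination of replicate fold changes, kanamycin versus none, each normalised to wild type. The library randomised all eight intron nucleotides of the P1ex region, with the intron placed in the knt kanamycin-resistance gene on pET-22b(+) in E. coli BL21(DE3). Six replicate transformations were grown overnight at 37°C or 30°C on LB agar with or without 25 μg/mL kanamycin, plus 100 μg/mL carbenicillin, 50 μM IPTG and 0.2% rhamnose. Pooled colonies were amplicon-sequenced on an Illumina HiSeq 2500.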

As for GCGUAGCAAUAUUACGACAU, the “self-splicing fitness (ln)” value runs as follows: (30 °C) -0.276 ± 0.014; (37 °C) -0.025 ± 0.033.

In the case of GUCUAGCAAUAUUACGCGGG, the “self-splicing fitness (ln)” value (30 °C) is -3.1 ± 0.19 and the “self-splicing fitness (ln)” value (37 °C) is -1.98 ± 0.17.

CCGGAGCAAUAUUACGCGUG: the “self-splicing fitness (ln)” value reads like this: (30 °C) -1.09 ± 0.14; (37 °C) -0.996 ± 0.16.

With UGCCAGCAAUAUUACGAGAU, the “self-splicing fitness (ln)” value reads like this: (30 °C) -3.75 ± 0.26; (37 °C) -2.32 ± 0.21.

In the case of UCCGAGCAAUAUUACGGCAC, the “self-splicing fitness (ln)” value (30 °C) is -2.01 ± 0.18 and the “self-splicing fitness (ln)” value (37 °C) was -2.76 ± 0.24.

Regarding AUGAAGCAAUAUUACGGGCA, the “self-splicing fitness (ln)” value by setting is: (30 °C) 0.212 ± 0.079; (37 °C) 0.459 ± 0.09.

As to GAGAAGCAAUAUUACGUCCC, the “self-splicing fitness (ln)” value by setting is: (30 °C) -0.258 ± 0.28; (37 °C) -0.337 ± 0.29.

GCGUAGCAAUAUUACGUACG: the “self-splicing fitness (ln)” value (30 °C) was -3.93 ± 0.18 and the “self-splicing fitness (ln)” value (37 °C) is -2.88 ± 0.17.

In the case of UAGUAGCAAUAUUACGCGAA, the “self-splicing fitness (ln)” value (37 °C) was -2.45 ± 0.41.

As for CAUAAGCAAUAUUACGCGGA, the “self-splicing fitness (ln)” value is -3.61 ± 0.24 (30 °C) and -1.68 ± 0.16 (37 °C).

Consider GUACAGCAAUAUUACGUGCU, for which the “self-splicing fitness (ln)” value by setting is: (30 °C) -3.17 ± 0.18; (37 °C) -3.14 ± 0.24.

For the sequence UAGAAGCAAUAUUACGAUUC, the “self-splicing fitness (ln)” value is -2.82 ± 0.17 (30 °C) and -2.06 ± 0.21 (37 °C).

For the sequence GGGUAGCAAUAUUACGUCGC, the “self-splicing fitness (ln)” value is -1.04 ± 0.23 (30 °C) and 0.272 ± 0.21 (37 °C).

Take UUUGAGCAAUAUUACGCCUC: the “self-splicing fitness (ln)” value (37 °C) was -0.879 ± 0.39.

For the sequence UUAGAGCAAUAUUACGUUGC, the “self-splicing fitness (ln)” value by setting is: (30 °C) -2.58 ± 0.22; (37 °C) -1.25 ± 0.33.

For the sequence CAGCAGCAAUAUUACGGGGU, the “self-splicing fitness (ln)” value was -3.28 ± 0.15 (30 °C) and -2.57 ± 0.16 (37 °C).

Consider AGGGAGCAAUAUUACGUAAC, for which the “self-splicing fitness (ln)” value by setting is: (30 °C) -2.23 ± 0.28; (37 °C) -2.99 ± 0.29.

In the case of AUGUAGCAAUAUUACGUUGU, the “self-splicing fitness (ln)” value was -3.85 ± 0.15 (30 °C) and -1.27 ± 0.092 (37 °C).

On to GCAGAGCAAUAUUACGACAC, for which the “self-splicing fitness (ln)” value runs as follows: (30 °C) -1.46 ± 0.2; (37 °C) -0.344 ± 0.33.

Turning to CAAUAGCAAUAUUACGCGGC, the “self-splicing fitness (ln)” value (30 °C) was -3.91 ± 0.37.

For the sequence CACAAGCAAUAUUACGAGAG, the “self-splicing fitness (ln)” value was -3.2 ± 0.12 (30 °C) and -1.32 ± 0.085 (37 °C).

With UUACAGCAAUAUUACGCACG, the “self-splicing fitness (ln)” value is, setting by setting: (30 °C) -1.13 ± 0.12; (37 °C) 0.579 ± 0.13.

Turning to ACGGAGCAAUAUUACGGGCU, the “self-splicing fitness (ln)” value is, setting by setting: (30 °C) -2.7 ± 0.25; (37 °C) -2.43 ± 0.27.

For AUGAAGCAAUAUUACGGGUG, the “self-splicing fitness (ln)” value (30 °C) is -1.81 ± 0.088 and the “self-splicing fitness (ln)” value (37 °C) was -0.453 ± 0.098.

With AAGCAGCAAUAUUACGGUGA, the “self-splicing fitness (ln)” value (30 °C) is -0.827 ± 0.1 and the “self-splicing fitness (ln)” value (37 °C) is -1.15 ± 0.092.

As for GGCUAGCAAUAUUACGAGAG, the “self-splicing fitness (ln)” value (30 °C) is -2.09 ± 0.16 and the “self-splicing fitness (ln)” value (37 °C) is -3.24 ± 0.32.

As to UACGAGCAAUAUUACGUCUC, the “self-splicing fitness (ln)” value is -3.24 ± 0.29 (30 °C) and -2.56 ± 0.4 (37 °C).

For GAACAGCAAUAUUACGAGUU, the “self-splicing fitness (ln)” value reads like this: (30 °C) -2.29 ± 0.092; (37 °C) -0.935 ± 0.1.

As to CCCCAGCAAUAUUACGUGCC, the “self-splicing fitness (ln)” value (30 °C) is -4.13 ± 0.27 and the “self-splicing fitness (ln)” value (37 °C) is -2.57 ± 0.24.

In the case of UCUAAGCAAUAUUACGCUGU, the “self-splicing fitness (ln)” value (30 °C) is -2.47 ± 0.18 and the “self-splicing fitness (ln)” value (37 °C) is -2.59 ± 0.21.

Take UAAUAGCAAUAUUACGCUUC: the “self-splicing fitness (ln)” value (37 °C) was -1.72 ± 0.29.

As to AACCAGCAAUAUUACGUCAG, the “self-splicing fitness (ln)” value reads like this: (30 °C) -2.3 ± 0.079; (37 °C) -1.49 ± 0.086.

As to AGCUAGCAAUAUUACGUGUG, the “self-splicing fitness (ln)” value by setting is: (30 °C) -2.2 ± 0.06; (37 °C) -1.7 ± 0.079.

For the sequence CACAAGCAAUAUUACGGAAU, the “self-splicing fitness (ln)” value is -4.1 ± 0.21 (30 °C) and -2.28 ± 0.16 (37 °C).

Take UUACAGCAAUAUUACGGCGC: the “self-splicing fitness (ln)” value is -2.88 ± 0.18 (30 °C) and -0.508 ± 0.13 (37 °C).

Regarding GCUGAGCAAUAUUACGACGG, the “self-splicing fitness (ln)” value reads like this: (30 °C) -1.27 ± 0.17; (37 °C) -0.245 ± 0.27.

On to UGCUAGCAAUAUUACGGCCG, for which the “self-splicing fitness (ln)” value (30 °C) was -0.359 ± 0.12 and the “self-splicing fitness (ln)” value (37 °C) was 0.337 ± 0.14.

Take CCUCAGCAAUAUUACGAACG: the “self-splicing fitness (ln)” value reads like this: (30 °C) -0.86 ± 0.062; (37 °C) -0.285 ± 0.096.
